{
  "source": "the nanobody polyreactivity screen of Harvey et al. (2022)",
  "data": [
    {"assay": "yeast display, Sf9 membrane polyspecificity reagent, FACS + sequencing; frameworks hold sequencing errors", "in_short": "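Using colony PCR, genes from sorted yeast display clones were amplified, then sequenced on MiSeq at 2 × 250 and filtered by CDR length. The clones had been stained with 10% biotinylated, detergent-solubilized Sf9 membrane reagent for 1 hour at 4 °C and sorted by FACS into low and high (top ~1%) gates on anti-HA and streptavidin fluorescence. Polyreactivity labels come from the gate of origin.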", "values": [
      {"sequence": "QVQLVESGGGLVQAGGSLRLSCAASGRIFTYNAMGWYRQAPGKERELVATITWRGGGTYYADSVKGRFTISRDNAKNTVYLQMNSLKPEDTAVYYCNRRLPGDGQYGYRRYDYWGQGTQVTVSS", "polyreactivity (PSR sort gate)": "low polyreactivity"},
      {"sequence": "QVQLVESGGGLVQAGGSLRLSCAASGRIFTYNAMGWYRQAPGKERELVAVISRRGGSTYYADSVKGRFTSSRDNAKNPVYLQMNSLTPEDSAVYYCAADLPSYPYEYWGQGPQVTVSS", "polyreactivity (PSR sort gate)": "low polyreactivity"},
      {"sequence": "QVQLVESGGGLVQAGGSLRLSCAASGRIFTYNAMVWYRQAPGKERELVAVITSGGSTYYADSVKGRFTISRDNAKNTVYLQMNSLKPEDTAVYYCAARVWGSSQYYYWGQGTQVTVSS", "polyreactivity (PSR sort gate)": "low polyreactivity"},
      {"sequence": "QVQLVESGGGLVQAGGSLRLSCAASGRIFTYYAKGWYRQPPGKERELVAVISSVGGTYYADSVKGRFTISRDNAKNTVYLQMNSLKPEDTAVYYCAALSDSRWHRFGYWGQGTQVTVSS", "polyreactivity (PSR sort gate)": "high polyreactivity"},
      {"sequence": "QVQLVESGGGLVQAGGSLRLSCAASGRIFTYYAMGWYRQAPGKERELVAAISTRGGNTYYADSVKGRFTISRDNAKNSVYLQMNSLKPEDTAVYYCSKENYYGGGFDYWGQGTQVTVSS", "polyreactivity (PSR sort gate)": "high polyreactivity"},
      {"sequence": "QVQLVESGGGLVQAGGSLRLSCAASGRIFTYYAMGWYRQAPGKERELVATICSSGSTNYADSVKGRFTISRDNAKNTVYLQMNSLKPEDTAVYYCAKKTRRRYDVKYDYWGQGTQVTVSS", "polyreactivity (PSR sort gate)": "low polyreactivity"},
      {"sequence": "QVQLVESGGGLVQAGGSLRLSCAASGRIFTYYAMGWYRQAPGKERQLVAAISSGTGTNYADSVKGRFTNSRDNAKNTVYLQMNSLKPEDTAVYDCAADRQHVVVGYYYWGQGTQVTVSS", "polyreactivity (PSR sort gate)": "low polyreactivity"},
      {"sequence": "QVQLVESGGGLVQAGGSLRLSCAASGRIFTYYTMGWYRQAPGKERELVAANDSGSSTYYADSVKGRFTISRDNAKNTVYLQMNSLKPEDTAVYYCAADGVRSLVRRGYWFDYWGQGTQVTVSS", "polyreactivity (PSR sort gate)": "low polyreactivity"},
      {"sequence": "QVQLVESGGGLVQAGGSLRLSCAASGRIFVANAMGWYRQAPGKERELVAAISRRGGRTYYADSVKGRFTISRDNAKNTVYLQMNSLKPEDTAVYYCARVPTRAEDVAGWTGMDYWGQGTQVTVSS", "polyreactivity (PSR sort gate)": "high polyreactivity"},
      {"sequence": "QVQLVESGGGLVQAGGSLRLSCAASGRIFVDNAMGWYRQAPGKERELVATITSTGSTNYADSVKGRFTISRDNAKNTVYLQMNSLKPEDTAVYYCADGYYPYWGQGTQVTVSS", "polyreactivity (PSR sort gate)": "low polyreactivity"},
      {"sequence": "QVQLVESGGGLVQAGGSLRLSCAASGRIFVDNTMGWYRPAPGKERELVAAISRRGTSTYYADSVKGRSTISRDNAKNTVYLQMNSLKPEDTAVYYCAADYYYYDSQQGMDYWGQGTQVTVSS", "polyreactivity (PSR sort gate)": "high polyreactivity"},
      {"sequence": "QVQLVESGGGLVQAGGSLRLSCAASGRIFVGYAMGRNIQAPGKERELVAAISRDGDNTFYADSVKGRFTISRDNAKNTVYLQMNSLKPEDTAVYYCAVDYWVWSCSAYAYDYYWGQVTQVTVSS", "polyreactivity (PSR sort gate)": "low polyreactivity"},
      {"sequence": "QVQLVESGGGLVQAGGSLRLSCAASGRIFVGYAMGWSRQAPGKERELVASITRSAGRTFYADSVKGRFTISRDNAKNTVYLQMNSLKPEDTAVYYCNARYWKGYNGYLRSTRRDDYWGQGTQVTVSS", "polyreactivity (PSR sort gate)": "high polyreactivity"},
      {"sequence": "QVQLVESGGGLVQAGGSLRLSCAASGRIFVHNAMGWYRQAPGKERELVAAISQNGGRTYYADSVKGRFTISRDNAKNTVYLQMNSLIPEDTAVYYCAAGQARAGLIGGYWGQGTQVTVSS", "polyreactivity (PSR sort gate)": "high polyreactivity"},
      {"sequence": "QVQLVESGGGLVQAGGSLRLSCAASGRIFVHNAMGWYRQAPGKERELVAAISSGGSTYYADSVKGRFTISRDNAKNTVYLQMNSLKPEDTAVYYCAKYAYYKKYDYWGQGTQVTVSS", "polyreactivity (PSR sort gate)": "high polyreactivity"},
      {"sequence": "QVQLVESGGGLVQAGGSLRLSCAASGRIFVHYAMGWYRQAPGKERELVAAISWNGGRTFYADSVKGRFTISRDNEKYTVYLQMNSLKPEDTAVYYCAALSRYSLDYWGQGTQVTVSS", "polyreactivity (PSR sort gate)": "high polyreactivity"},
      {"sequence": "QVQLVESGGGLVQAGGSLRLSCAASGRIFVIYAMGWYRQAPGKERELVASIRSSSTYYADSVKGRFTISRDNAKNTVYLQMNSLKPEDTAVYYCAAVAEYRGYDYWGQGTQVTVSS", "polyreactivity (PSR sort gate)": "low polyreactivity"},
      {"sequence": "QVQLVESGGGLVQAGGSLRLSCAASGRIFVIYAMGWYRQAPGTERELVAAITARGSNTYYADSVKGRFTISRDNAKNTVYLQMNSLKPEDTAVYYCNAEARSYRYPYNYWGQGTQVTVSS", "polyreactivity (PSR sort gate)": "high polyreactivity"},
      {"sequence": "QVQLVESGGGLVQAGGSLRLSCAASGRIFVIYGMGWYRQAPGKERELVAAIRWTGGSTYYADSVKGRFTISRDNAQNTVYLQMNSLQPEDTAVYYCNAGSDRAIWPTHDYWGQGTQVTVSS", "polyreactivity (PSR sort gate)": "low polyreactivity"},
      {"sequence": "QVQLVESGGGLVQAGGSLRLSCAASGRIFVIYGRGWYRPAPGKERELVATISWSGSSTSYADSVKGRFTISRDNAKNTVYLQMNSLKPEDTAVYYCAAYTWYSRHRMNYWGQGTQVTVSS", "polyreactivity (PSR sort gate)": "high polyreactivity"},
      {"sequence": "QVQLVESGGGLVQAGGSLRLSCAASGRIFVKNAMGWYRQAPGKERELVAAISRGGSTYYADSEKGRFTISRDNAKITVYLQMNSLKPEDTAVYNCAPGGQGGDFGDDYWGQGTQVTVSS", "polyreactivity (PSR sort gate)": "high polyreactivity"},
      {"sequence": "QVQLVESGGGLVQAGGSLRLSCAASGRIFVKNAMGWYRQAPGKERELVAGISRGGSTYYADSVKGRFTISRDNAKNTVYLQMYSLKPEDTAVYYCATRNYGRGQFDYWGQGSQVTVSS", "polyreactivity (PSR sort gate)": "high polyreactivity"},
      {"sequence": "QVQLVESGGGLVQAGGSLRLSCAASGRIFVKYAMGWYRQAPGKERELVAAIRSGGSTYYADSVKGRFTISRDNAKNTVYLQMNSLKPEDTAVYDCAADRNKHHYYTEPYDYWGQGTQVTVSS", "polyreactivity (PSR sort gate)": "low polyreactivity"},
      {"sequence": "QVQLVESGGGLVQAGGSLRLSCAASGRIFVKYAMGWYRQAPGKEREMVAAISASGGGTYYADSVKGRFTISRDNAKNTVYLQMNSLNPVDTAVYYFNADFRYPGQVPSYVTYDYWGQGTQVNVSS", "polyreactivity (PSR sort gate)": "low polyreactivity"},
      {"sequence": "QVQLVESGGGLVQAGGSLRLSCAASGRIFVKYVMGWYRQAPGKERELVAAISSRGGSTYYADSVKGRFTSSRDNAKNTVYLQMNSLKPEDTAVYYCNKAFTARDDYWGQGTQVTVSS", "polyreactivity (PSR sort gate)": "high polyreactivity"},
      {"sequence": "QVQLVESGGGLVQAGGSLRLSCAASGRIFVKYVMGWYRQAPGKERELVAAITYTGGTYYADSVKGRFTISRDTAKNTVYLQMNSLKPEETAVYYCAADYQGSYYSGSYQTWTEYYYWGQGTQVTVSS", "polyreactivity (PSR sort gate)": "high polyreactivity"},
      {"sequence": "QVQLVESGGGLVQAGGSLRLSCAASGRIFVNYAMGWYRQAPGKERELVAVISRSGGGTNYADSVKGRFTISRDNAKNTVYLQMNSLKPEDTAVYYCNRVYALTYYAKYGYDYWGQGTQVTVSS", "polyreactivity (PSR sort gate)": "high polyreactivity"},
      {"sequence": "QVQLVESGGGLVQAGGSLRLSCAASGRIFVPNAMGWYRQAPGKERELVAAITRSGSTYYADSVKGRFTISRDNAKNTVYLQMNSLKPEDTAVYYCAADYYYPSQMDSWGQGTQVTVSS", "polyreactivity (PSR sort gate)": "low polyreactivity"},
      {"sequence": "QVQLVESGGGLVQAGGSLRLSCAASGRIFVPNAMGWYRQAPGKERELVAAITRSGSTYYADSVKGRFTISRDNAKNTVYLQMNSLKPEDTAVYYCNAASRRFPGKVWDYHYWGQGTQVTVSS", "polyreactivity (PSR sort gate)": "low polyreactivity"},
      {"sequence": "QVQLVESGGGLVQAGGSLRLSCAASGRIFVPYAMGWSRQAPGKEREFVAAISWNTGSTYYADSVKGRFTISRDNAKNTVYLQMNSLNPVDTAVYYCAAGSGVSYEGGYKINGYWGQGTQVTVSS", "polyreactivity (PSR sort gate)": "high polyreactivity"},
      {"sequence": "QVQLVESGGGLVQAGGSLRLSCAASGRIFVPYAMGWYRQAPGKERELVAAISWNTGSTYYADSVKGRFTISRDNAKNTVYLQMNSLKPEDTAVYYCAAGSRVRYDGGYKINGYWGQGTQVTVSS", "polyreactivity (PSR sort gate)": "high polyreactivity"},
      {"sequence": "QVQLVESGGGLVQAGGSLRLSCAASGRIFVRNAMGWYRQAPGKEMEFVAAISRSGGSTYYADSVKGRFTISRDNAKNTVYLQMNSLKPEDTAVYYCAADYPKTYTSKFNYWGQGTQVTVSS", "polyreactivity (PSR sort gate)": "high polyreactivity"},
      {"sequence": "QVQLVESGGGLVQAGGSLRLSCAASGRIFVRNAMGWYRQAPGKEREFVAAISRSGGSTYYADSVKGRFTISRDNAKNTVYLQMNSLKPEDTAVYYCAADYPKTYTSKFNYWGQGTQVTVSS", "polyreactivity (PSR sort gate)": "high polyreactivity"},
      {"sequence": "QVQLVESGGGLVQAGGSLRLSCAASGRIFVRNAMGWYRQAPGKERELVAAISRSGGSTSYADSVKGRFTISRDNAKNTVYLQMNSLKPEDTAVYYCAARYARYQYQYDYWGQGTQVTVSS", "polyreactivity (PSR sort gate)": "high polyreactivity"},
      {"sequence": "QVQLVESGGGLVQAGGSLRLSCAASGRIFVRNTMGWYRQAPGKERELVAAINSGGSTYYADSVKGRFTISRDNENNTVYLQMNSLKPEDTAVYYCAGQFYLFYEYDYWGQGTQVTVSS", "polyreactivity (PSR sort gate)": "high polyreactivity"},
      {"sequence": "QVQLVESGGGLVQAGGSLRLSCAASGRIFVRYAMGWYRQAPGKERELVAGITSGSRTNYADSVKGRFTISRDNAKNTVYLQMNSLKPEDTAVYYCNARVFRYYGIFDYWGQGTQVTVSS", "polyreactivity (PSR sort gate)": "high polyreactivity"},
      {"sequence": "QVQLVESGGGLVQAGGSLRLSCAASGRIFVRYDMGWYRQAPGKERELVAAISSSDGSTYYADSVKGRFTISRDNAKNTVYLQMNSLKPEDTAVYYCNADVSLDDYDYWGQGTQVTVSS", "polyreactivity (PSR sort gate)": "low polyreactivity"},
      {"sequence": "QVQLVESGGGLVQAGGSLRLSCAASGRIFVSNAMGWYRQAHGKERELVAGITWTSGSTYYADSVKGRFTISRDNAKNTVYLLMNSLKPEDTAVYYCAAEYWYGNAFDYWGEGTQVTVSS", "polyreactivity (PSR sort gate)": "low polyreactivity"},
      {"sequence": "QVQLVESGGGLVQAGGSLRLSCAASGRIFVSYAMGWYRQAPGKERELVAAISSSGGSTYYADSVKGRFTISRDNAKNTVYLQMNSLKPEDTAVYYCNTDQRSRMDYWGQGTQVTVSS", "polyreactivity (PSR sort gate)": "low polyreactivity"},
      {"sequence": "QVQLVESGGGLVQAGGSLRLSCAASGRIFVSYAMGWYRQAPGKERELVAAITYSVDSTYYADSVKGRFTISRDNAKNTVYLQMNSLKPEDTAVSYCATDVDWAYGYQYEYWGQGTQVTVSS", "polyreactivity (PSR sort gate)": "low polyreactivity"},
      {"sequence": "QVQLVESGGGLVQAGGSLRLSCAASGRIFVSYTMGWYRQAPGKERELVAAISTDATTNYADSVKGRFTISRDNAKNTVYLQMNSLKPEDTAVYYCAADPFEYSYYTLYTSNPFYYWGQGTQVTVSS", "polyreactivity (PSR sort gate)": "low polyreactivity"},
      {"sequence": "QVQLVESGGGLVQAGGSLRLSCAASGRIFVTNAMGWSRQGPGKERELVAAISYRGGRTYYADSVKGRFTISRDNAKNTVYLQMNSLKPEDTAVYYCNAVTRWPFDYWGQGTQVTVSS", "polyreactivity (PSR sort gate)": "high polyreactivity"},
      {"sequence": "QVQLVESGGGLVQAGGSLRLSCAASGRIFVTYAMGWYRQAPGKERELVAAIPWDGDSTYYADSVKGRFTISRDNAKNTVYLQMNSLKPEDTAVYYCNAKKFNSHVELGYDYWGQGTQVTVSS", "polyreactivity (PSR sort gate)": "low polyreactivity"}
    ]}
  ]
}
